Measurements as given in the NTF2 design screens of Basanta et al. (2020).

assay: protease stability score; higher = more stable; yeast display proteolysis, trypsin and chymotrypsin;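 note: relative to predicted unfolded state with 0 unfolded-like and 1 meaning tenfold more protease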

Sequence	protease stability score
SEDHEEVRKVTKVYLELFETGDEEELMKLADPEVRLHINGRDLHGREWMERAIRELLEYYGVKHIESWTIHDITIQGDKAVMDTSVKIRVNGREHELKMHIYSRKFDGRWFLTSVRFH	1.26
SEEEEELKRALKIIIEVMLTGDEKTHHELADPHARLEIHQGNYIEHQHGREIVDKVLRDWIEKLGIDHLHLERVDKQGNKLFVHVHVKVGDKHSKLDIVASKVDGRWVLHEVRIIDE	1.84
DEDEKKLEHHLRTYEEALRTGDEELNHRLADPNTKVDVDGRYIHGRDFWREIMNQWRFKEMRFREIHLQGDKANVDTEVNIDVNGREMRTESHIISIKIDGRWMIKEVRFR	0.799
SEFDRLSKEAVDILVHSLETGDWRSVSELFDPDYRLDVGDKRYHGREKVNEFMRHMGIKHVEIKRIHLQGDKAHIDSRMLVDGREFITHVIMEKVNGRWVITHISIE	1.01
DEDTNLLREFVRLLSEALKTGDEDTLRTLFDPHVRFIIGDKDLVGREAFHFFLERFDVIRSVELHNYDHYGDKVTLDTRQVIHVNGQDIRIHSHIVVTKVNGRWRLESVKFK	1.25
SEEETMERLSIEITLEMLKTGDETEILKNMDPDARVIVGDKVYHGREHVIELWRRLGVKHSEPKHVYVINGRVHIDMEVHVDGKRFHVHIISHKINGQWSITNVKLEKE	2.02
DETKEAIDRLFEVIHRMMITGDEHEFMKLVDPNVKVIQGEKIYHGREVIVNMLREILKWAGVENIQSHLDPERVHIQGDKLLVRGRLELRIGDKSEERDVEFVVVKVDGRWLIRVWKIE	2.74
DDIRKWMEHVFRDFNRSLKTGDERRSLELLDPHARIDINGVELIGREMFRKELHEMRIHVDDFDIESVDIQGDKVHLRTRVRVTIIVDGVKIHEERELEIHLHKFDGRWYIKEIRVR	1.46
GDSEKDAERAIDIFLDTVRTGDERLIHELLDPTTILQVGDKQFHGREEADKWWHELLRKLGHTNIEMEVRDMKVQGDKVHLDTELRFNGRSTRIHVVIIKVNGRWLIEHIEIK	1.23
DEDEERAQEMAKRLEDSLHTGDEETHQNLMDPHMRLRVNGKEFHGRENILHFLREWRIHHLDVRLRHIDDRGEYIIINSEVRVDGNIDGKRTELHTISEIILVKVDGRWMTDEFRFH	0.72
DEEEEELRELARISLELWITGDEDHLRHLMDPRTLLIVDGQEVHGREEAIKWVAFHLLKIKGLTLELKDFDVINGRLHLHVTRRVNGVRRRLRIHIEIIDGRIKTIRITID	2.28
DEEDEASHLALRLLEFTMKTGDERVSKENFDPNVRIEINGVDLHGWEHLTRILREIRIHDVRIEHSEVQGEKLILHGRMHWRVNGRDIEVETQVHAIKVDGKWRTKRIHFD	1.49
DSLEEMTRKWFEKWVRDLKTGDEQSMTELADPHVRFLQGDKEYHGRELFTELESEKRKRFDHLELRLHSMEVQGDKLHIDSRMILKIGDFVLKLNVYLHVLKIDGRWLLEEIRIK	0.704
SEREKIAELAYRLLKRSSDTGDPHLMQWLMDPNTRIEQGEFEHHGRDAISFWIKRFDHNRHIDVKRIEVQGNKVIMEFDVELDVNGVEIHTELVLISLKVNGQWRMESIKIE	0.575
DEDEERSERLLHMVIELLLTGDEEKWNNLLDPHARVEIDGQERHGRHIVTHFLTRFKNVRMHIHDVKVYGEKVDITTEITFNGKHINVHIELVFVNGKMTSVRFEWHRH	2.02
DEDERRDRELAEHFEHLWMTGDEETLVENLDPNARVKVGDKENHGREAFILFLREFGIDHFEFRDSKIVNGQVHIDGEIDWNGRRTRVEHIVKIVDGKVKHWEIRIK	1.52
TEEEEHIRRLAEELMHNIRTGDEDTLVDLFDPDTKLHVHQGDKEIVFHGMEEIFDWWEKLLSEIRIEIRIRSIKYIGDKAHVHTEVIWRFNGREHRIESEIEFVLINGKVERIHISFI	2.27
SKISEFVKMLLEIEVHAHETGDWRHYQEMMDPHVKFELNIGNFHTLDHGRDRLIDWIEHHIKRADHLHVHIREVHVIGDKVSVRGELKTNVNGVDLEYEILQIIIVVDGRFKSIQHSYL	0.155
DEDEEALDRFLEEWRRYFETGNWEMISNLVDPHARLEQGDKRFHGREEVAKYIHHLVRHMRINDFDIEHRDVQGDKIRIHLRLNGEIDGRRTEFEIHMIYIKVNGRWVVKSMVVN	0.882
EEDEEYLRKHYTDLKHALETGDEDRIMELFDPHVRIDDEDHNLHGREELFRWLHDLGIDHHELRIDDFKIDGDKVSIDGHLRVIVNGRDIHFRTIIRIKKVNGQWRLTHLEIR	1.94
DKIKHLEDEIEKIFFETIETGDEHLFNQLVDPNVRVRIGDKHSVGREHVERVEREHREHMGVDHVEIRIHDSRTFNGVIHIEGKLHYHVNGRRHEHRIHIFLVVWDGVVRHLEIEIR	0.305
SEDEEESEFAVRELSKIIKTGDPDRFHHLADPNMRFIYGDKREHGMESWVSHLHRLGIENVEVHIHDWSVFNGQVVIDGRINVNGREVNAEFVMRKIDGRWHITEVRER	0.611
SEDDKRLREIADLWKHAFLTGDFNLIHKLMDPHARWVVNGQHVHGMEEWEHFLERIDVFRIESSRTDHIEVYGDKVQIDGHSNVKIQIGDKKIDLITRMEIRLIIINGRYHQVEHIVR	0.707
DEDHRWLKELMELFSRALSTGNEKELTELMDPNTRIEVDGVDLIGREDWRHFLERVDHLEAKRVEIKRVKVYDGKIEMDTTEDGVIEINGQNVRTIVHSQVFVLKVDGRWIFRKMSRR	1.42
DETTHELEWFTKIVAHAIETGDFEVMLNLIDPNVRVQEIIDGREIEFHGWHAFEHWMRKFKNITIIIRHVHHQGNKVEIEGEIDFNGKRRDVRIRFHVWNGRVKEFRHEER	1.52

Sequence	protease stability score
SELEEEALHLMELYLKSVMTGDEESIRRLADPNVRFEVDINGKKLELHGWKEETKFWREIWVRELRVRDKDAIGNKVHSVVEINVDVNGKEIRRESEEHYIIVDGRLHIISFRVN	1.27
SEEDRLLEELLKLYLHLEATGNEDRFAELVDPDARMDFNGREHHGREEIRHHMVKHWKDLGVKHLHIDRFRYFNGVLDVRGHLKVNGREKDVVWILEIIDGRIHEIRHHLH	1.28
DEEEKIMYHIFEVLIKLFLTGDFDTFTKMLDPNVYWNINGQENHGRDKVREALKLWIERFKNRTFDIKITDMRVQGEKTTLHTRLHVEVDGRHLEHDTVIILIVVDGRIKTIVIHIH	2.51
DEEKKDLDILIEILFEIIYTGNEEKFRELVDPNAKSRVGDKKTHGREDATKLLSKKWRHMRIRTMDVHDFRHYDGQIDVDSRLDGDINGVELLLEVRLILVKYDGRWLIKNIHIQ	1.43
SEDHKETEEAMHKIRHDLETGDEKSWHEQADPNTRIDINGVDLHGREWASKFYSDVMQKVKGATVHLKHVHIFENRLIVDGIEIVNGRTHRVHLIADKINGRWVIREIRVE	1.06
HEIEEEVENAVRLISHLLLTGDEETLHDLADPEMRTIVGDKHLHGREMWSEVIRRLGVDVLVIKEIRVQGDWIHSDGVLLVNGQERDAKIHVRKVNGKWVITTFQLK	1.8
SEREHLADRFVKELTTALQTGDEEKIREMFDPHMKLIINGVTFHGWEELEKIRKRVDHIEHVEVRIEDVRIINGVVEIKGELHVHERVGDKIIDRSNDQTYFVEKVNGRWILKQVELH	1.14
DEEEKVVFELLRLFITAWETGDEDVLLRLADPNVRMTIGDKHYHGMEHFSHVYLLIFEELRITVKVHDIRIIGDKAYVDVEERRHQGDKSWKYRTHYEFEKIDGRWKLRRVEVK	2.54
DELKKILDEYIEDHLRAVHTGDEDRVKHQIDPHVRIDVNGVELIGMEDWKKFLDILGVDNIQVDRYEIKDYHLVGDKATLHEHRDVKYNGVRSRHNINFVVQKIDGKWYFTEYQTE	0.399
DEEEHELLHFVHLWIDILRTGDWEKISEYADPNVKLIVGDKIFIGMEAFIEFMERFLRRVDHVQYEIRSIRAYDGVIEMHTEVREHQGDKEIHTEVHITFFVYNGVKKHIEIRIK	2.48
TELEHKAIEVVEAVFRNLHTGDESLLQELFDPNTKSLIDGVSVVGMHEIYKTIKHLRIEFESIEVHHITNVNGVLLLDVTLRERYRINGVEDEKQTRVHIIVRKIDGRWHLEHVRFH	1.48
DEDQEIAEHVAELILELLLTGDEEKFLTLLDPNVRIIVGDKELHGREDWMRLFRHMRVRHVELRKIEVQGEKVHVDSRLDVEFNGRRRNINANWIVLKVNGRWTIRSVELE	2.17
SEEEEHAEELIRLELEALLTGDEEHMARNLDPNVRININGKDIVGREEVSRFLKHLRVRSIHIEIKDFRVIGNWLHVDGRVHFHGHFDGRKIDSTTQFHMILVKINGRWFIHSVKFQ	2.6
STEEEEAKKFSDIVLKAFDTGDEDLYRDLADPDTRSIINGVEKHGWKDIARHIKRIDHSDTHWDRVEMRVVNGQARVHVKGHIDVTIDGQRFVLRVTWHIIVTKIDGRWHLEELSLEVS	1.31
SEEEDISRNLLEIFLRVLLTGDEHAISRLLDPRVLVIFHFENRDIILHGRSNVLKWLHDRLREIRINDWSVKSVEVQGNKAHQDTRIDIIIGDKKIDKEVEVNITVVDGKVKHLEIRVH	2.21
DEDKDMKDTMLKDLLHTLETGDEDIWAKLIDPNTQVDIGDKRIHGREKIVEHFRRADVLTIHHVRLRQFHHFDGRAHMNVQFDGTVQINGVEVRFDVTVKLVFLKVNGRWFLHSEERE	1.15
SEETEETERVEREISHARLTGDEQFLKEMLDPNTRLLINGVILVGREALEHFVREMRVERVEVKDVRVQGDKLHIDTTSDVHYNGRRWTIKTHLIMVKVDGRWLMESVEFK	1.62
DESQEIAIEASKRLYNHLLTGDEDNLKRLLDPHVRIEIDGRDIHGMEEVTRLKREWRFDSIEIRVDSVRDVNGRLDVKGHMRYHVRIGDKSHDREVKMHLTAEKIDGRWHNKSIHFE	1.26
DEDREAIELLVRLLITAHETGDEKILWDLMDPNVRYHQGNFELHGREEIMELESRLRKHLGINHISFRLHDMQHIGDKLILHGSLMFRIGDKEHHTEVDIIVIKINGKWLIESIFIR	1.57
DKRDEKMERFLRLMIEFYTTGNEDEFRKLADPDVRTIVGDKHAHGWEESEKVFRILIDHMRIRRIHIEHITVQGNWAHSITRLDGEVNGVRVHVRTEVVIIVYNGRVETIDLRWE	1.28
DERTELTRNFFEEMVDTMITGNEHLEHRLADPNVRIYVGEKRIHGMERYIHQHHQWRFKDFKLKDIDTQGDKATIDGHLEGEVNGKDTRTDVEVHTLKFNGRWLIHTLRIR	1.1
DRDDEMTERALKEHIKNFRTGDFDKLLELADPNVRVDIDGREIHGRENFVKLVLKLMDDLGMKPEDVWVEHVNVFNGKVHMRIVLVTFYGDKRHINDTNVIATKFDGRWILKDVTMV	1.08
DEDEQHSELLFRLLYHARKTGDWRKLQELADPHTRFQIGEWDLIGWKMYLEYVRNFRNVHLEFHIKDFRLYGEKTHSNVETIIRIGDKTLNIETELRVDVVNGRIKFIEVHER	0.994
NEMHEHAREFLERWKEWMHTGDEETMSKLADPHVRNEYNGVIRVGMEALEKVIRELRVRRTHDHHEHIEFQGDKLHIHVDQESDIEINGVRHRVRIHFDIISVKINGKWTLKSIRLTFH	1.41
DHEHEEFEENLEHFEHHMKTGDFELLLKLADPHVKIHVNGRDYHGWEELKRVLETLGISKVKVEFHRIHLINGVAFNDGKMEVNGVHTKTHYVAKKVNGRWFMRSMEMN	0.775
